Data as given in patent publication US20260242478A1 (published 2026).
Where no end group is shown, it is not given here.

B1: Phage-779 (peptide)
peptide: YCEGHLPEYMMKCL
notes: not shown: fused to the pIII filament protein of the bacteriophage
B2: Phage-775 (peptide)
peptide: YCEGHMSEYMAKCL
notes: as for B1
B3: Phage-786 (peptide)
peptide: YCEGHRSEYMAKCL
notes: as for B1
B4: Phage-783 (peptide)
peptide: YCDGHSALYMSKCL
notes: as for B1
B5: Phage-804 (peptide)
peptide: YCEGHSAEYIFKCL
modifications: cysteine pairing not given here; also: displayed on phage by fusion to pIII, pIII and linker sequence not given here
notes: Clonal phage of the Peptide-87 library; not shown: fused to the pIII filament protein of the bacteriophage
B6: Phage-784 (peptide)
peptide: YCDGHTGVYFYKCL
notes: as for B1
B7: Phage-782 (peptide)
peptide: YCEGHSWEYIGKCL
notes: as for B1
B8: Phage-803 (peptide)
peptide: YCEGHAAEYMWKCL
modifications: cysteine pairing not given here; also: displayed on phage by fusion to pIII, pIII and linker sequence not given here
notes: as for B5
B9: Phage-777 (peptide)
peptide: YCEGHSLEYMAKCL
notes: as for B1
B10: Phage-801 (peptide)
peptide: YCDGHLPMYFAKCM
modifications: cysteine pairing not given here; also: displayed on phage by fusion to pIII, pIII and linker sequence not given here
notes: as for B5
B11: Phage-787 (peptide)
peptide: YCDGHLAMYMDKCL
notes: as for B1
B12: Phage-781 (peptide)
peptide: YCEGHSPLYMSKCL
notes: as for B1
B13: Phage-778 (peptide)
peptide: YCEGHSYEYMWKCL
notes: as for B1
B14: Phage-802 (peptide)
peptide: YCDGHSSEYIVKCL
modifications: cysteine pairing not given here; also: displayed on phage by fusion to pIII, pIII and linker sequence not given here
notes: as for B5
B15: Phage-776 (peptide)
peptide: YCDGHSWEYIQKCL
notes: Position 10 is printed as '--' and was read as unchanged (I); not shown: fused to the pIII filament protein of the bacteriophage
B16: Phage-785 (peptide)
peptide: YCEGHTSEYMNKCL
notes: as for B1
B17: Phage-780 (peptide)
peptide: YCDGHLPEYMRKCL
notes: as for B1

What was measured:
[1] = target: Anti-CD28 Fab (SEQ ID NOs: 696, 697); experiment: phage binding ELISA; biotinylated anti-CD28 Fab on neutravidin plate, clonal phage supernatant, anti-M13 HRP detection
Target sequence in this assay (VH, as listed by the source, chain 1 of 2): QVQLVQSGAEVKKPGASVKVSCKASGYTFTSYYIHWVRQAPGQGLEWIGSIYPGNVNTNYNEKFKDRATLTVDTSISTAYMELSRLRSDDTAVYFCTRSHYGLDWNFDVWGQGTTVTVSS
Target sequence in this assay (VL, as listed by the source, chain 2 of 2): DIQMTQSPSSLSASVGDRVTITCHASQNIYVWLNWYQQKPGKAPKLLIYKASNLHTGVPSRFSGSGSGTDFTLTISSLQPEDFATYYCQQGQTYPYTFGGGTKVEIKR
Method: (§1) After panning, phage infected bacteria were plated out and colonies picked into 96 well blocks. Clonal phage was then amplified and separated from bacterial cells via centrifugation.
(§2) Clonal phage were harvested as crude supematants and screened via standard ELISAs. […] Prior to the addition of clonal phage, wells were incubated with blocking buffer and CD28 antigen or blocking buffer alone. Without washing or aspirating, clonal phage supematants were then added to the wells and incubated for a short time. Wells were then washed followed by detection of bound phage using a horse radish conjugated anti-M13 antibody. Clonal phage of interest were then sent for sequence analysis.

[2] = target: Anti-CD28 Fab (SEQ ID NOs: 696, 697); experiment: phage binding ELISA; anti-CD28 Fab on plate pre-incubated with CD28 antigen as competitor, anti-M13 HRP detection
Target sequence in this assay (VH, as listed by the source, chain 1 of 2): as the sequence (VH, as listed by the source, chain 1 of 2) above
Target sequence in this assay (VL, as listed by the source, chain 2 of 2): as the sequence (VL, as listed by the source, chain 2 of 2) above
Method: as §1, §2

[3] = target: T1, Anti-CD28 Fab (SEQ ID NOs: 696, 697); experiment: phage ELISA; biotinylated anti-CD28 Fab on neutravidin plate, clonal phage supernatant, anti-M13 HRP detection;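 further: crude supernatants of single phage clones picked after panning were screened for binding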
T1 construct: In the phage ELISA the Fab was biotinylated and captured on neutravidin coated plates
T1 sequence (VH, as listed by the source, chain 1 of 2): as the sequence (VH, as listed by the source, chain 1 of 2) above
T1 sequence (VL, as listed by the source, chain 2 of 2): as the sequence (VL, as listed by the source, chain 2 of 2) above

[4] = target: T1, Anti-CD28 Fab (SEQ ID NOs: 696, 697); experiment: phage ELISA on anti-CD28 Fab pre-incubated with CD28 antigen as competitor, anti-M13 HRP detection
[5] = target: T2, Anti-CD28 Fab (SEQ ID NOs: 696, 697); experiment: phage ELISA on captured anti-CD28 Fab; competitor CD28 antigen pre-incubated in the wells;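 further: clonal phage supernatants added to wells preloaded with CD28 antigen in blocking buffer, control wells buffer only, bound phage read via HRP-linked anti-M13 antibody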
T2 construct: Biotinylated Fab captured on neutravidin coated plates in the phage ELISA
T2 sequence (VH, as listed by the source, chain 1 of 2): as the sequence (VH, as listed by the source, chain 1 of 2) above
T2 sequence (VL, as listed by the source, chain 2 of 2): as the sequence (VL, as listed by the source, chain 2 of 2) above
Method: as §1, §2

[6] = target: T2, Anti-CD28 Fab (SEQ ID NOs: 696, 697); experiment: phage ELISA; biotinylated anti-CD28 Fab on neutravidin plate, bound phage detected with anti-M13 HRP antibody
Method: as §1, §2

[7] = target: T3, Anti-CD28 Fab (SEQ ID NOs: 696, 697); experiment: phage binding ELISA; Fab on plate pre-incubated with CD28 antigen as competitor, anti-M13 HRP detection;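 further: crude clonal phage supernatants screened by ELISA, with comparison wells pre-incubated in blocking buffer only, lacking CD28 antigen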
T3 construct: Biotinylated and captured on neutravidin coated plates in the phage ELISA
T3 sequence (VH, as listed by the source, chain 1 of 2): as the sequence (VH, as listed by the source, chain 1 of 2) above
T3 sequence (VL, as listed by the source, chain 2 of 2): as the sequence (VL, as listed by the source, chain 2 of 2) above

[8] = target: T3, Anti-CD28 Fab (SEQ ID NOs: 696, 697); experiment: phage binding ELISA; biotinylated Fab on neutravidin plate, clonal phage supernatant, anti-M13 HRP detection;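 further: phage from clones picked after panning, added to wells pre-incubated with blocking buffer with or without CD28 antigen, then briefly incubated and washed before detection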

Binder | Anti-CD28 Fab signal (phage binding ELISA) [1] | Anti-CD28 Fab signal in the presence of CD28 (phage binding ELISA) [2] | Anti-CD28 Fab signal in the presence of CD28 (phage binding ELISA) [5] | Anti-CD28 Fab signal (phage binding ELISA) [6] | also measured
YCAGHAPEYMFKCM [Phage-797] | 1.83 | 0.06 |  |  | 
YCDGHSAAYIMKCL [Phage-792] | 1.84 | 0.09 |  |  | 
YCAGHSSEYMWKCL [Phage-790] | 1.85 | 0.07 |  |  | 
YCDGHSPEYMPKCL (Tested as clonal phage supernatant) [Phage-769] |  |  |  |  | Phage binding ELISA, Anti-CD28 Fab signal [3]: 1.89; Phage binding ELISA, Anti-CD28 Fab signal in the presence of CD28 [4]: 0.08
B1 |  |  | 0.27 | 1.88 | 
B2 |  |  | 0.11 | 1.88 | 
B3 |  |  | 0.06 | 1.86 | 
YCEGHVAEYMLKCL (Tested as clonal phage supernatant) [Phage-773] |  |  |  |  | Phage binding ELISA, Anti-CD28 Fab signal [3]: 1.88; Phage binding ELISA, Anti-CD28 Fab signal in the presence of CD28 [4]: 0.05
YCDGHRPEYMEKCL (Tested as clonal phage supernatant) [Phage-765] |  |  |  |  | Phage binding ELISA, Anti-CD28 Fab signal [3]: 1.9; Phage binding ELISA, Anti-CD28 Fab signal in the presence of CD28 [4]: 0.06
YCDGHLAEYMPKCL (Tested as clonal phage supernatant) [Phage-770] |  |  |  |  | Phage binding ELISA, Anti-CD28 Fab signal [3]: 1.89; Phage binding ELISA, Anti-CD28 Fab signal in the presence of CD28 [4]: 0.07
B4 |  |  | 0.08 | 1.87 | 
B5 |  |  |  |  | Anti-CD28 Fab signal in the presence of CD28 [7]: 0.05; Anti-CD28 Fab (SEQ ID NOs: 696, 697) signal [8]: 1.83
YCEGHLQEYMEKCL (Tested as clonal phage supernatant) [Phage-767] |  |  |  |  | Phage binding ELISA, Anti-CD28 Fab signal [3]: 1.89; Phage binding ELISA, Anti-CD28 Fab signal in the presence of CD28 [4]: 0.1
YCEGHIPEYMAKCL (Tested as clonal phage supernatant) [Phage-768] |  |  |  |  | Phage binding ELISA, Anti-CD28 Fab signal [3]: 1.89; Phage binding ELISA, Anti-CD28 Fab signal in the presence of CD28 [4]: 0.06
B6 |  |  | 0.08 | 1.87 | 
YCDGHSWAYMWKCL [Phage-791] | 1.85 | 0.13 |  |  | 
YCDGHSLQYLGKCL [Phage-793] | 1.84 | 0.09 |  |  | 
YCDGHLPEYMGKCL (Tested as clonal phage supernatant) [Phage-766] |  |  |  |  | Phage binding ELISA, Anti-CD28 Fab signal [3]: 1.89; Phage binding ELISA, Anti-CD28 Fab signal in the presence of CD28 [4]: 0.11
YCEGHAAEYMSKCL [Phage-789] | 1.86 | 0.07 |  |  | 
B7 |  |  | 0.07 | 1.87 | 

Binder | Anti-CD28 Fab signal (phage binding ELISA) [1] | Anti-CD28 Fab signal in the presence of CD28 (phage binding ELISA) [2] | Anti-CD28 Fab signal in the presence of CD28 (phage binding ELISA) [5] | Anti-CD28 Fab signal (phage binding ELISA) [6] | also measured
B8 |  |  |  |  | Anti-CD28 Fab signal in the presence of CD28 [7]: 0.07; Anti-CD28 Fab (SEQ ID NOs: 696, 697) signal [8]: 1.83
B9 |  |  | 0.08 | 1.88 | 
YCEGHSPEYMWKCL (Tested as clonal phage supernatant) [Phage-771] |  |  |  |  | Phage binding ELISA, Anti-CD28 Fab signal [3]: 1.89; Phage binding ELISA, Anti-CD28 Fab signal in the presence of CD28 [4]: 0.09
B10 |  |  |  |  | Anti-CD28 Fab signal in the presence of CD28 [7]: 0.06; Anti-CD28 Fab (SEQ ID NOs: 696, 697) signal [8]: 1.83
YCAGHLPEYLSKCL [Phage-795] | 1.84 | 0.07 |  |  | 
B11 |  |  | 0.08 | 1.86 | 
YCEGHSQEYMQKCL [Phage-794] | 1.84 | 0.05 |  |  | 
B12 |  |  | 0.09 | 1.87 | 
B13 |  |  | 0.08 | 1.88 | 
YCEGHLSEYMSKCL (Tested as clonal phage supernatant) [Phage-774] |  |  |  |  | Phage binding ELISA, Anti-CD28 Fab signal [3]: 1.88; Phage binding ELISA, Anti-CD28 Fab signal in the presence of CD28 [4]: 0.09
YCEGHRPEYMAKCL [Phage-798] | 1.83 | 0.07 |  |  | 
B14 |  |  |  |  | Anti-CD28 Fab signal in the presence of CD28 [7]: 0.06; Anti-CD28 Fab (SEQ ID NOs: 696, 697) signal [8]: 1.83
YCEGHLQIYMSKCL [Phage-796] | 1.84 | 0.14 |  |  | 
B15 |  |  | 0.07 | 1.88 | 
YCDGHSPAYMAKCL [Phage-800] | 1.83 | 0.1 |  |  | 
B16 |  |  | 0.06 | 1.87 | 
YCDGHIDEYLQKCL (Tested as clonal phage supernatant) [Phage-772] |  |  |  |  | Phage binding ELISA, Anti-CD28 Fab signal [3]: 1.88; Phage binding ELISA, Anti-CD28 Fab signal in the presence of CD28 [4]: 0.06
YCEGHLPEYMRKCL [Phage-799] | 1.83 | 0.06 |  |  | 
B17 |  |  | 0.08 | 1.88 | 
YCDGHMPEYLAKCL [Phage-788] | 1.86 | 0.07 |  |  | 
